Reference: the supplement of paper PMC7125110
± gives the standard error. Fewer inactive variants are shown than the library holds.

B1: glmS ribozyme (parent)
chain: AUAAAAGCGCCAGAACUACAGAAAUGUAGUUGACGAGGAGGAGGUUUAUCGAAUUUUCGGCGGAUGCCUCCAAA

Variants of: B1
Assay: self-cleavage kobs at 10000 uM GlcN6P; higher = faster cleavage; RNA array
Details: with glucosamine-6-phosphate
Outline: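 Barcoded ribozyme variants on sequenced MiSeq chips were transcribed in situ by E. coli RNA polymerase and followed at 37 °C through a hybridised Cy3 probe. Glucosamine-6-phosphate at 40 μM to 10 mM in HEPES/KCl/Mg(OAc)2 buffer was flowed in, and tiles were imaged over ~14 h. Signals were normalised to baseline and to non-cleaving reference variants, and per-tile medians were fit to one- or two-exponential decays to give kobs. Weighted Michaelis–Menten fits across concentrations gave kcat and KM.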
In the case of U55A C58U U65C, the “self-cleavage kobs at 10000 uM GlcN6P” value is reported as less than 1e-05 s⁻¹.
For U47G G59A, the “self-cleavage kobs at 10000 uM GlcN6P” value was 3.68e-05 ± 1.3e-05 s⁻¹.
In the case of A6U U47G C50A, the “self-cleavage kobs at 10000 uM GlcN6P” value is reported as less than 1e-05 s⁻¹.
C11U A12G A14U was tested, and the “self-cleavage kobs at 10000 uM GlcN6P” value was 0.000156 ± 3.3e-05 s⁻¹.
A15C A42G U47G A53G was tested, and the “self-cleavage kobs at 10000 uM GlcN6P” value was 0.000696 ± 9.1e-05 s⁻¹.
With A14C G44A U45A the “self-cleavage kobs at 10000 uM GlcN6P” value was 7.22e-05 ± 2.3e-05 s⁻¹.
With G37A U54A G66U the “self-cleavage kobs at 10000 uM GlcN6P” value was 0.000359 ± 8.7e-05 s⁻¹.
For C8U U45G C50U U65C, the “self-cleavage kobs at 10000 uM GlcN6P” value was less than 1e-05 s⁻¹.
In the case of A42G U55C G60A, the “self-cleavage kobs at 10000 uM GlcN6P” value is reported as 4.43e-05 ± 1.7e-05 s⁻¹.
With U30C G40A U56A G62C the “self-cleavage kobs at 10000 uM GlcN6P” value was less than 1e-05 s⁻¹.
For U31C G38C U45A C50A C58U, the “self-cleavage kobs at 10000 uM GlcN6P” value was less than 1e-05 s⁻¹.
In the case of A12G A14C A15G, the “self-cleavage kobs at 10000 uM GlcN6P” value is reported as 0.000141 ± 3e-05 s⁻¹.
C8U U30G G43C was tested, and the “self-cleavage kobs at 10000 uM GlcN6P” value was less than 1e-05 s⁻¹.
With U47A U65G G66U the “self-cleavage kobs at 10000 uM GlcN6P” value was 0.00262 ± 0.00053 s⁻¹.
A15G A33G G59U was tested, and the “self-cleavage kobs at 10000 uM GlcN6P” value was less than 1e-05 s⁻¹.
In the case of C10A U45A U46C C70A, the “self-cleavage kobs at 10000 uM GlcN6P” value is reported as less than 1e-05 s⁻¹.
A6U G51C G63C U69G was tested, and the “self-cleavage kobs at 10000 uM GlcN6P” value was less than 1e-05 s⁻¹.
With A48C C58A C61U the “self-cleavage kobs at 10000 uM GlcN6P” value was less than 1e-05 s⁻¹.
A12G G29A U46C was tested, and the “self-cleavage kobs at 10000 uM GlcN6P” value was 6.56e-05 ± 1.2e-05 s⁻¹.
With A15G G29A G32A A64G the “self-cleavage kobs at 10000 uM GlcN6P” value was 0.000605 ± 0.00015 s⁻¹.
A6U G59A U69G was tested, and the “self-cleavage kobs at 10000 uM GlcN6P” value was less than 1e-05 s⁻¹.
In the case of U56G G60C, the “self-cleavage kobs at 10000 uM GlcN6P” value is reported as less than 1e-05 s⁻¹.
In the case of C11U C34G G51A A52U C68G, the “self-cleavage kobs at 10000 uM GlcN6P” value is reported as 0.000563 ± 0.00022 s⁻¹.
With G32A G40A C68G the “self-cleavage kobs at 10000 uM GlcN6P” value was less than 1e-05 s⁻¹.
A53G U57G C67G C68A was tested, and the “self-cleavage kobs at 10000 uM GlcN6P” value was less than 1e-05 s⁻¹.
With A14U A42G U47C the “self-cleavage kobs at 10000 uM GlcN6P” value was 0.000229 ± 8.1e-05 s⁻¹.
In the case of G44U U65A, the “self-cleavage kobs at 10000 uM GlcN6P” value is reported as 5.28e-05 ± 1.3e-05 s⁻¹.
With C19A G43C U47G the “self-cleavage kobs at 10000 uM GlcN6P” value was less than 1e-05 s⁻¹.
With C8G C58U C61U the “self-cleavage kobs at 10000 uM GlcN6P” value was less than 1e-05 s⁻¹.
For G40U G43U G62A, the “self-cleavage kobs at 10000 uM GlcN6P” value was less than 1e-05 s⁻¹.
For C16A U31A C71G, the “self-cleavage kobs at 10000 uM GlcN6P” value was 4.01e-05 ± 1.1e-05 s⁻¹.
For A14C U31A U69G, the “self-cleavage kobs at 10000 uM GlcN6P” value was 5.33e-05 ± 1.5e-05 s⁻¹.
With A12C G29U U69G the “self-cleavage kobs at 10000 uM GlcN6P” value was 3.54e-05 ± 1.6e-05 s⁻¹.
For G43C U45G A48U C50U C58U C67U, the “self-cleavage kobs at 10000 uM GlcN6P” value was less than 1e-05 s⁻¹.
With C11A G13U A53G C67U C68G the “self-cleavage kobs at 10000 uM GlcN6P” value was 3.78e-05 ± 1.7e-05 s⁻¹.
For A39U C67A C70U, the “self-cleavage kobs at 10000 uM GlcN6P” value was 0.00654 ± 0.0014 s⁻¹.
In the case of U47A A53U C58A, the “self-cleavage kobs at 10000 uM GlcN6P” value is reported as 0.000151 ± 3e-05 s⁻¹.
With A14C U54G C70A the “self-cleavage kobs at 10000 uM GlcN6P” value was 7.96e-05 ± 1.8e-05 s⁻¹.
For C10A A12G G35C U56A U69A, the “self-cleavage kobs at 10000 uM GlcN6P” value was 0.000264 ± 7.7e-05 s⁻¹.
C8G G9A G35A A36U was tested, and the “self-cleavage kobs at 10000 uM GlcN6P” value was less than 1e-05 s⁻¹.
A5U C8G G9U U30C was tested, and the “self-cleavage kobs at 10000 uM GlcN6P” value was less than 1e-05 s⁻¹.
A15G U46G C67G was tested, and the “self-cleavage kobs at 10000 uM GlcN6P” value was 0.000339 ± 6e-05 s⁻¹.
In the case of C10U C50G A53U U54G U55C C68G, the “self-cleavage kobs at 10000 uM GlcN6P” value is reported as 6.48e-05 ± 2e-05 s⁻¹.
For U57G G62C, the “self-cleavage kobs at 10000 uM GlcN6P” value was less than 1e-05 s⁻¹.
For A52U U55G A64U, the “self-cleavage kobs at 10000 uM GlcN6P” value was less than 1e-05 s⁻¹.
For G40A C58A, the “self-cleavage kobs at 10000 uM GlcN6P” value was 7.56e-05 ± 1.6e-05 s⁻¹.
In the case of G13A A42G, the “self-cleavage kobs at 10000 uM GlcN6P” value is reported as 0.000882 ± 0.00023 s⁻¹.
For A36U A39C U65C, the “self-cleavage kobs at 10000 uM GlcN6P” value was less than 1e-05 s⁻¹.
For G40A C67A C70A, the “self-cleavage kobs at 10000 uM GlcN6P” value was 0.0001 ± 2.9e-05 s⁻¹.
In the case of A15U C16A A39U, the “self-cleavage kobs at 10000 uM GlcN6P” value is reported as 0.000273 ± 6.1e-05 s⁻¹.
For A15C C16A G37U G40U G62U C70A, the “self-cleavage kobs at 10000 uM GlcN6P” value was less than 1e-05 s⁻¹.
U30G A42U was tested, and the “self-cleavage kobs at 10000 uM GlcN6P” value was 3.53e-05 ± 8.7e-06 s⁻¹.
With G9U A33U G40A C58U the “self-cleavage kobs at 10000 uM GlcN6P” value was less than 1e-05 s⁻¹.
In the case of G59C G66A, the “self-cleavage kobs at 10000 uM GlcN6P” value is reported as less than 1e-05 s⁻¹.
A33G C50U C58G C71U was tested, and the “self-cleavage kobs at 10000 uM GlcN6P” value was less than 1e-05 s⁻¹.
In the case of A12C A52U C67G, the “self-cleavage kobs at 10000 uM GlcN6P” value is reported as 0.000146 ± 3.5e-05 s⁻¹.
For G43A A53U G59C G60U, the “self-cleavage kobs at 10000 uM GlcN6P” value was less than 1e-05 s⁻¹.
With C8U C50A G51U A52U the “self-cleavage kobs at 10000 uM GlcN6P” value was less than 1e-05 s⁻¹.
C16G C50A U56C U69G was tested, and the “self-cleavage kobs at 10000 uM GlcN6P” value was less than 1e-05 s⁻¹.
In the case of A6C C50G A64U, the “self-cleavage kobs at 10000 uM GlcN6P” value is reported as 3.95e-05 ± 2e-05 s⁻¹.
G29U U56C was tested, and the “self-cleavage kobs at 10000 uM GlcN6P” value was 0.000483 ± 0.00016 s⁻¹.
For U46C U49A, the “self-cleavage kobs at 10000 uM GlcN6P” value was less than 1e-05 s⁻¹.
With A12G U57C C58G the “self-cleavage kobs at 10000 uM GlcN6P” value was 2.94e-05 ± 1.4e-05 s⁻¹.
A15U C50U C61G A64G was tested, and the “self-cleavage kobs at 10000 uM GlcN6P” value was less than 1e-05 s⁻¹.
In the case of U56C A64C U65A, the “self-cleavage kobs at 10000 uM GlcN6P” value is reported as less than 1e-05 s⁻¹.
For C10A A36U A39U, the “self-cleavage kobs at 10000 uM GlcN6P” value was less than 1e-05 s⁻¹.
With G7A A53G the “self-cleavage kobs at 10000 uM GlcN6P” value was 3.18e-05 ± 9.4e-06 s⁻¹.
With G7U G29U G32A A42U U55C G62C the “self-cleavage kobs at 10000 uM GlcN6P” value was less than 1e-05 s⁻¹.
With A36C G41U C50G G60U C61G the “self-cleavage kobs at 10000 uM GlcN6P” value was less than 1e-05 s⁻¹.
In the case of U30C U54G C67G, the “self-cleavage kobs at 10000 uM GlcN6P” value is reported as 2.88e-05 ± 1.3e-05 s⁻¹.
C50U G60U C61A was tested, and the “self-cleavage kobs at 10000 uM GlcN6P” value was less than 1e-05 s⁻¹.
For G43A C71G, the “self-cleavage kobs at 10000 uM GlcN6P” value was less than 1e-05 s⁻¹.
For U30A G38C, the “self-cleavage kobs at 10000 uM GlcN6P” value was less than 1e-05 s⁻¹.
In the case of A6G A12G G40U U47C, the “self-cleavage kobs at 10000 uM GlcN6P” value is reported as less than 1e-05 s⁻¹.
With U57A G60A C61A the “self-cleavage kobs at 10000 uM GlcN6P” value was less than 1e-05 s⁻¹.
A14G A39G G44C C68U was tested, and the “self-cleavage kobs at 10000 uM GlcN6P” value was 3.6e-05 ± 1.5e-05 s⁻¹.
C11U C34A G43C was tested, and the “self-cleavage kobs at 10000 uM GlcN6P” value was less than 1e-05 s⁻¹.
For G7U C8A G9U U31C A33U, the “self-cleavage kobs at 10000 uM GlcN6P” value was less than 1e-05 s⁻¹.
With G13U C16U U31A A33U G35C the “self-cleavage kobs at 10000 uM GlcN6P” value was less than 1e-05 s⁻¹.
With A6G G29A G60C G63C the “self-cleavage kobs at 10000 uM GlcN6P” value was less than 1e-05 s⁻¹.
In the case of A1C U2A A3U G7A C8G G9C C10G C16G, the “self-cleavage kobs at 10000 uM GlcN6P” value is reported as less than 1e-05 s⁻¹.
In the case of U47C A53U C68G, the “self-cleavage kobs at 10000 uM GlcN6P” value is reported as 3.22e-05 ± 1.4e-05 s⁻¹.
With C8A U45A A52G C61G C67U the “self-cleavage kobs at 10000 uM GlcN6P” value was less than 1e-05 s⁻¹.
G43A G51U G63C was tested, and the “self-cleavage kobs at 10000 uM GlcN6P” value was less than 1e-05 s⁻¹.
